One assay deals with T1, PD-L1-mFc (human, UniProt Q9NZQ7 19-238).
T1 construct: range 19-238; not shown: mouse Fc (mFc)
The experiment in a line: blocking ELISA: PD-1-hFc coated at 0.5 µg/mL, 0.5 µg/mL PD-L1-mFc co-incubated with the titrated binder (50 nM, 1.5-fold, 10 points), detection with HRP-anti-mouse Fc; blocked partner PD-1-hFc. How it is done:
Human PD-1-hFc (PD-1 Sequence No. NP_005009.2, 21aa-167aa) was diluted with PBS to 0.5 µg/mL, coated on an ELISA plate overnight at 4° C. Then the plate was blocked with 5% BSA for 60 min at 37° C. in a thermostatic incubator. Gradient dilutions of hzF2 and control antibody KN035, and an isotype control NC-hIgG1 (initial working concentration of 50 nM, 1.5-fold dilution to 10 concentration gradients), were added, then PD-L1-mFc (PD-L1 Sequence No. NP_054862.1, 19aa-238aa) was added at a working concentration of 0.5 µg/mL, co-incubated and reacted in a thermostatic incubator at 37° C. for 60 min. The plate was washed 4 times with PBST; then added 1:5000 diluted HRP-anti-mouse Fc (Cat.:115-035-071, Jackson Immuno Research) thereto, reacted for 45 min, and added TMB (Beijing Taitianhe Biology, Cat.: ME142) substrate to develop color for 15 min. After adding 2 M HCl to stop the reaction, the plate was read and recorded about the absorbance value of A450nm-630nm of the well plate by a reader taking 630 nm as the reference wavelength, and 450 nm as the detection wavelength.
(An ELISA detects its analyte on a solid surface through an enzyme-linked reagent.)

Assay [1] addresses T2, murine PD-L1 recombinant protein (murine, UniProt Q9EP73 19-238, limits assumed).
T2 construct: also called recombinant murine PD-L1
Briefly: BLI (Octet QKe), antibody captured on AHC probe, antigen as mobile phase. On the procedure: (§1) The Octet QKe system instrument from Fortebio Company was used to determine whether chF2 could bind to recombinant monkey PD-L1 and recombinant murine PD-L1 by using the capture antibody (AHC) biological probe of anti-human antibody Fc segment to capture the Fc segment of the antibody. During the measurement, chF2 was diluted to 4 µg/mL with PBS buffer and flowed over the surface of AHC probe (PALL, Cat.: 18-0015) for 120 s. The monkey PD-L1 recombinant protein and the murine PD-L1 recombinant protein were used as mobile phases to interact with the antibodies captured on the surface of the chip. The PD-L1 recombinant protein concentration was 60 nM. The binding time of each antigen was 300 s, and the final dissociation time was 300 s.
On the technique in general: In BLI a coated tip is dipped into the sample, and binding shifts an interference pattern.

Assay [2] deals with T3, human PD-L1 expressed on the cell surface (human, UniProt Q9NZQ7 19-290).
T3 construct: whole, on cells; also called CHO-PD-L1-CD3L cells; CHO-PD-L1
T3 sequence (Q9NZQ7 19-290): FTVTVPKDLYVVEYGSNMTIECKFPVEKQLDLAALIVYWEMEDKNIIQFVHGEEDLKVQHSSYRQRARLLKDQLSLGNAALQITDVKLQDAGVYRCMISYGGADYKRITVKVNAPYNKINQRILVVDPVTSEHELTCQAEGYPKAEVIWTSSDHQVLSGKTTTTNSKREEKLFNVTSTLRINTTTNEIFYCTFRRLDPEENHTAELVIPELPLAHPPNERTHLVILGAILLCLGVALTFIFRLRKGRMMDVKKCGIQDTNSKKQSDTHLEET
Briefly: flow cytometry on CHO-PD-L1-CD3L cells, FITC anti-human Fc. How it is done: Cells (CHO-PD-L1-CD3L cells) were collected after centrifugation, divided into 5×10⁵ cells/sample/100 µL. Gradient diluted single variable domain antibody was added to the cells at a final concentration of 66 nM as the highest concentration, 3-fold serial dilution to make 10 gradients; then incubated on ice for 2h. The cells were washed twice with ice-cold PBS (containing 0.05% Tween). FITC-labeled anti-human Fc secondary antibody (Cat.: F9512, Sigma) was added, and incubated on ice for 1h. The cells were washed twice with ice-cold PBS (containing 0.05% Tween), resuspended in 200 µL of Flow Cytometry Buffer, and the mean fluorescence intensity (MFI) of the cells was detected by flow cytometer (Model B49007AD, SNAW31211, BECKMAN COULTER).
In general terms: Flow cytometry measures light scatter and fluorescence of single cells or particles in a stream.

Assay [3] deals with T4, human PD-L1 recombinant protein (human, UniProt Q9NZQ7 19-238).
T4 construct: also called recombinant PD-L1 protein; recombinant PD-L1
T4 sequence (Q9NZQ7 19-238 limits assumed): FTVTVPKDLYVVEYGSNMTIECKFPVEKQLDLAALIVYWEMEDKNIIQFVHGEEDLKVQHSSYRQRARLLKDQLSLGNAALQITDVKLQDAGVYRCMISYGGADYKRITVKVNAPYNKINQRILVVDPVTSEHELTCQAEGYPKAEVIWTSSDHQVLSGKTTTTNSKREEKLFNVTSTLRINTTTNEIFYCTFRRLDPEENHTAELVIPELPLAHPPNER
Briefly: BLI (Octet QKe), antibody captured on AHC probe, PD-L1 60 nM. On the procedure:
Using the Octet QKe system instrument from Fortebio Company, the ability of chF2 to bind corresponding recombinant antigen was determined by using the capture antibody (AHC) biological probe against the Fc fragment of the human antibody to capture the Fc fragment of the antibody. During the measurement, chF2 was diluted with PBS buffer to 4 µg/mL, and flowed over the surface of AHC probe (Cat.: 18-0015, PALL) for 120 s. A human PD-L1 recombinant protein was used as the mobile phase to interact with the antibody captured on the chip surface. The recombinant PD-L1 protein concentration was 60 nM. The binding time for each antigen was 300 s, and the final dissociation time was 300 s.

Assay [4] deals with T5, monkey PD-L1 recombinant protein (monkey).
T5 construct: also called recombinant monkey PD-L1
The experiment in a line: BLI (Octet QKe), antibody captured on AHC probe, antigen 60 nM. On the procedure:
as §1

The target of assay [5] is T3, human PD-L1 expressed on the cell …. The experiment in a line: cell-based or functional assay.
Assay [6] deals with T4, human PD-L1 recombinant protein. Briefly: BLI (method per paragraph 89); target not given, taken as human PD-L1 recombinant protein.
The target is the same in assay [7]. The experiment in a line: BLI, human PD-L1 recombinant protein.

The values that follow come from patent US20230279115A1 (MABWELL SHANGHAI BIOSCIENCE, published 2023).

T2 sequence (Q9EP73 19-238 limits assumed): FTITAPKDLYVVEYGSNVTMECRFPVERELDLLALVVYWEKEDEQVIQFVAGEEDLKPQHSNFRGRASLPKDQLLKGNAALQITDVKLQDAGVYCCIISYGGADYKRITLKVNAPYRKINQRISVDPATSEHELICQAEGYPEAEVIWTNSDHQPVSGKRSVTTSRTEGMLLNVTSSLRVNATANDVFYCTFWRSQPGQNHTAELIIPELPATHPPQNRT
T1 sequence (Q9NZQ7 19-238 limits assumed): as the sequence (Q9NZQ7 19-238 limits assumed) above

B1: KN035 (fusion protein of the KN035 variable region and Fc) (Fc fusion)
chain: QVQLVESGGGLVQPGGSLRLSCAASGKMSSRRCMAWFRQAPGKERERVAKLLTTSGSTYLADSVKGRFTISRDNSKNTVYLQMNSLRAEDTAVYYCAADSFEDPTCTLVTSSGAFQYWGQGTLVTVSS
notes: Built by the same strategy as chF2; also called Envafolimab; control antibody; not shown: human Fc (IgG1, hFc) from the same expression vector and strategy as chF2
Take B1: the IC50 with PD-L1-mFc is 8.1 nM. For the same molecule, the binding result in assay [1] is reported as “no binding (tested: 60 nM)”. The molecule also registered an EC50 in assay [2] of 1.27 nM. Besides, in assay [3], the Kd amounted to 1.5 nM, the koff is 0.00035 s⁻¹ and the kon is 233000 M⁻¹ s⁻¹. Besides, in assay [4], the Kd is 1.32 nM, the koff was determined as 0.000281 s⁻¹ and the kon came to 213000 M⁻¹ s⁻¹. Also, the “Reporter Gene Assay (Jurkat-PD1-NFAT cells and CHO-PD-L1-CD3L cells), luciferase RLU, EC50” value in assay [5] is 4.9 nM.

B2: hzF2-m9 (VHH)
VHH: EVQLVESGGGLVQPGGSLRLSCAASRDSDEGASCMGWFRQAPGKEREGVAIIFNAGERTDYGDSVKGRFTISRDNAKNTLYLQMNSLRAEDTAVYYCATVWCGSWVARSWGQGTLVTVSS
notes: also called humanized single variable domain antibody hzF2-m9
Take B2: the Kd in assay [6] stood at 1.34 nM. Further, in assay [7], the dissociation constant (Kd) stood at 1.34 nM, the dissociation rate constant (koff) is 0.000434 s⁻¹ and the kon was 324000 M⁻¹ s⁻¹.

B3: hzF2-m2 (VHH)
VHH: EVQLVESGGGLVQPGGSLRLSCAASGDSDDGASCMGWFRQAPGKGLEGVAIIFNAGERTDYGDSVKGRFTISRDNAKNTLYLQMNSLRAEDTAVYYCATVWCGSWVARSWGQGTLVTVSS
notes: The parent hzF2 is a VHH-human IgG1 Fc fusion; also called humanized single variable domain antibody hzF2-m2
On to B3, for which, in assay [6], the Kd came to 1.26 nM. Moreover, in assay [7], the Kd stood at 1.26 nM, the koff stood at 0.000709 s⁻¹ and the kon was determined as 562000 M⁻¹ s⁻¹.

B4: hzF2-m10 (VHH)
VHH: EVQLVESGGGLVQPGGSLRLSCAASRDSDDGASCMGWFRQAPGKEREGVAIIFNAGERTDYGDSVKGRFTISRDNAKNTLYLQMNSLRAEDTAVYYCATVYCGSWVARSWGQGTLVTVSS
notes: Framework 2 is KEREG; also called humanized single variable domain antibody hzF2-m10
As to B4, the Kd in assay [6] came out at 4.31 nM.

B5: hzF2-m15 (VHH)
VHH: EVQLVESGGGLVQPGGSLRLSCAASRDSDEGASCMGWFRQAPGKEREGVAIIFNVGERTDYGDSVKGRFTISRDNAKNTLYLQMNSLRAEDTAVYYCATVFCGSYVARSWGQGTLVTVSS
notes: Framework 2 is KEREG; also called humanized single variable domain antibody hzF2-m15
Take B5: the Kd in assay [6] turned out to be 4.75 nM.

B6: hzF2-m13 (VHH)
VHH: EVQLVESGGGLVQPGGSLRLSCAASRDSDDGASCMGWFRQAPGKEREGVAIIFNAGERTDYGDSVKGRFTISRDNAKNTLYLQMNSLRAEDTAVYYCATVFCGSFVARSWGQGTLVTVSS
notes: Framework 2 is KEREG; also called humanized single variable domain antibody hzF2-m13
In the case of B6, the dissociation constant (Kd) in assay [6] came to 4.26 nM.

B7: hzF2-m3 (VHH)
VHH: EVQLVESGGGLVQPGGSLRLSCAASRDSSSGASCMGWFRQAPGKGLEGVAIIFNAGERTDYGDSVKGRFTISRDNAKNTLYLQMNSLRAEDTAVYYCATVWCGSWVARSWGQGTLVTVSS
notes: The parent hzF2 is a VHH-human IgG1 Fc fusion; also called humanized single variable domain antibody hzF2-m3
For B7, the Kd in assay [6] is 7.8 nM. In assay [7], the Kd is 7.8 nM, the dissociation rate constant (koff) was 0.00487 s⁻¹ and the kon is 624000 M⁻¹ s⁻¹.

B8: hzF2-m1 (VHH)
VHH: EVQLVESGGGLVQPGGSLRLSCAASRDSDDGASSMGWFRQAPGKGLEGVAIIFNAGERTDYGDSVKGRFTISRDNAKNTLYLQMNSLRAEDTAVYYCATVWSGSWVARSWGQGTLVTVSS
notes: The parent hzF2 is a VHH-human IgG1 Fc fusion; also called humanized single variable domain antibody hzF2-m1
For B8, in assay [6], the Kd was 2.8 nM. In addition, in assay [7], the Kd amounted to 2.8 nM, the koff is 0.0019 s⁻¹ and the kon is 679000 M⁻¹ s⁻¹.

B9: hzF2-m12 (VHH)
VHH: EVQLVESGGGLVQPGGSLRLSCAASRDSDEGASCMGWFRQAPGKEREGVAIIFNVGERTDYGDSVKGRFTISRDNAKNTLYLQMNSLRAEDTAVYYCATVWCGSWVARSWGQGTLVTVSS
notes: Framework 2 is KEREG; also called humanized single variable domain antibody hzF2-m12
With B9, in assay [6], the Kd turned out to be 1.54 nM.

B10: hzF2-m16 (VHH)
VHH: EVQLVESGGGLVQPGGSLRLSCAASRDSDEGASCMGWFRQAPGKEREGVAIIFNVGERTDYGDSVKGRFTISRDNAKNTLYLQMNSLRAEDTAVYYCATVFCGSFVARSWGQGTLVTVSS
notes: Framework 2 is KEREG; also called humanized single variable domain antibody hzF2-m16
On to B10, for which, in assay [6], the dissociation constant Kd was found to be 3.18 nM.

B11: hzF2-m7 (VHH)
VHH: EVQLVESGGGLVQPGGSLRLSCAASRDSDDSASCMGWFRQAPGKGLEGVAIIFNAGERTDYGDSVKGRFTISRDNAKNTLYLQMNSLRAEDTAVYYCATVWCGSWVARSWGQGTLVTVSS
notes: The parent hzF2 is a VHH-human IgG1 Fc fusion; also called humanized single variable domain antibody hzF2-m7
With B11, in assay [6], the Kd turned out to be 4.59 nM. Further, in assay [7], the Kd amounted to 4.59 nM, the koff came to 0.00157 s⁻¹ and the kon was found to be 341000 M⁻¹ s⁻¹.

B12: hzF2-m4 (VHH)
VHH: EVQLVESGGGLVQPGGSLRLSCAASRDSNDGASCMGWFRQAPGKGLEGVAIIFNAGERTDYGDSVKGRFTISRDNAKNTLYLQMNSLRAEDTAVYYCATVWCGSWVARSWGQGTLVTVSS
notes: The parent hzF2 is a VHH-human IgG1 Fc fusion; also called humanized single variable domain antibody hzF2-m4
Turning to B12, the Kd in assay [6] came to 9.36 nM. In assay [7], the Kd was found to be 9.36 nM, the koff was determined as 0.0065 s⁻¹ and the kon is 695000 M⁻¹ s⁻¹.

B13: hzF2-m11 (VHH)
VHH: EVQLVESGGGLVQPGGSLRLSCAASRDSDDGASCMGWFRQAPGKEREGVAIIFNAGERTDYGDSVKGRFTISRDNAKNTLYLQMNSLRAEDTAVYYCATVYCGSYVARSWGQGTLVTVSS
notes: Framework 2 is KEREG; also called humanized single variable domain antibody hzF2-m11
As to B13, in assay [6], the Kd turned out to be 3.24 nM.

B14: hzF2-m14 (VHH)
VHH: EVQLVESGGGLVQPGGSLRLSCAASRDSDEGASCMGWFRQAPGKEREGVAIIFNVGERTDYGDSVKGRFTISRDNAKNTLYLQMNSLRAEDTAVYYCATVYCGSYVARSWGQGTLVTVSS
notes: Framework 2 is KEREG; also called humanized single variable domain antibody hzF2-m14
With B14, the Kd in assay [6] was found to be 3.81 nM.

B15: hzF2-m8 (VHH)
VHH: EVQLVESGGGLVQPGGSLRLSCAASRDSDDGASCMGWFRQAPGKEREGVAIIFNVGERTDYGDSVKGRFTISRDNAKNTLYLQMNSLRAEDTAVYYCATVWCGSWVARSWGQGTLVTVSS
notes: also called humanized single variable domain antibody hzF2-m8
With B15, the Kd in assay [6] worked out at 1.18 nM. In assay [7], the Kd was 1.18 nM, the koff is 0.000419 s⁻¹ and the kon was found to be 356000 M⁻¹ s⁻¹.

Broadly, the IC50 is the concentration at which inhibition is half-maximal. The term EC50 denotes the concentration that produces a half-maximal response. As a reminder, the Kd is the free concentration of one partner at which half of the binding sites on the other are occupied at equilibrium, for simple one-to-one binding. What is called koff is a measure of how fast the partners let go of each other. By kon is commonly meant the rate constant with which the complex forms.
